Measured values published in publication PMC6978347 (2020).

Molecular target: T1, MEKK3^43–127 (MEKK3–PB1) (UniProt Q99759 43-127)
T1 chain: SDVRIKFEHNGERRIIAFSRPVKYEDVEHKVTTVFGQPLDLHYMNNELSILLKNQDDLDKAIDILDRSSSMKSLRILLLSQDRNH
Assay: ITC

B1: NBR1^1–85 (human NBR1–PB1) (domain or fragment)
chain: MEPQVTLNVTFKNEIQSFLVSDPENTTWADIEAMVKVSFDLNTIQIKYLDEENEEVSINSQGEYEEALKMAVKQGNQLQMQVHEG
For B1, the Kd was 13.3 nM.
